# ± gives the uncertainty stated by the source.
# Experiment: self-splicing fitness, log relative to wild type (ln ratio); higher = more splicing; Tetrahymena group I intron in knt gene, E. coli kanamycin selection, DiMSum; sequences stand for … in CUCUCU…GGAGGGAAAAGUUAUCAGGCAUGCACCUGGUAGCUAGUCUUUAAACCAAUAGAUUGCAUCGGUUUAAAAGGCAAGACCGUCAAAUUGCGGGAAAGGGGUCAACAGCCGUUCAGUACCAAGUCUCAGGGGAAACUUUGAGAUGGCCUUGCAAAGGGUAUGGUAAUAAGCUGACGGACAUGGUCCUAACCACGCAGCCAAGUCCUAAGUCAACAGAUCUUCUGUUGAUAUGGAUGCAGUUCACAGACUAAAUGUCGGUCGGGGAAGAUGUAUUCUUCUCAUAAGAUAUAGUCGGACCUCUCCUUAAUGGGAGCUAGCGGAUGAAGUGAUGCAACACUGGAGCCGCUGGGAACUAAUUUGUAUGCGAAAGUAUAUUGAUUAGUUUUGGAGUACUCGUGGUCG
# Summary of the method: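 The eight P1ex-region nucleotides of an intron in the knt kanamycin-resistance gene on pET-22b(+) were all randomised and the library put into E. coli BL21(DE3). Six replicate transformations were grown overnight at 37°C or 30°C on LB agar with or without 25 μg/mL kanamycin, together with 100 μg/mL carbenicillin, 50 μM IPTG and 0.2% rhamnose. Colonies were pooled and amplicon-sequenced on an Illumina HiSeq 2500. Fitness from DiMSum is the error-weighted combination of wild-type-normalised replicate fold changes, kanamycin over none.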
Sequence,self-splicing fitness (ln) (30 °C),self-splicing fitness (ln) (37 °C)
UCCAAGCAAUAUUACGAUUG,-4.13 ± 0.33,-1.78 ± 0.2
GGCUAGCAAUAUUACGACCC,-1.79 ± 0.36,-0.966 ± 0.37
GUAAAGCAAUAUUACGUUCG,-0.724 ± 0.061,-0.407 ± 0.084
UGUGAGCAAUAUUACGGUGG,-2.64 ± 0.19,-3.01 ± 0.35
ACCGAGCAAUAUUACGUUUC,-4.37 ± 0.29,-2.94 ± 0.32
CCCGAGCAAUAUUACGUCGC,-2.91 ± 0.25,-2.29 ± 0.4
AUCAAGCAAUAUUACGAUGA,-0.483 ± 0.076,-0.19 ± 0.086
CACGAGCAAUAUUACGUCGC,-2.82 ± 0.33,-2.69 ± 0.41
GAGAAGCAAUAUUACGAUGG,-2.74 ± 0.16,-1.69 ± 0.18
GACAAGCAAUAUUACGCUAA,-3.01 ± 0.23,-2.11 ± 0.2
UCUUAGCAAUAUUACGUCUC,-3.09 ± 0.3,-2.39 ± 0.39
AGCUAGCAAUAUUACGUGAU,-3.09 ± 0.15,-1.79 ± 0.15
CGCGAGCAAUAUUACGUUCA,-2.43 ± 0.19,-1.5 ± 0.17
GCAUAGCAAUAUUACGCAUG,-3.79 ± 0.23,-2.12 ± 0.19
AUACAGCAAUAUUACGUGCA,-1.01 ± 0.083,-0.648 ± 0.085
CACUAGCAAUAUUACGAACU,-2.65 ± 0.1,-1.99 ± 0.15
ACGAAGCAAUAUUACGACAA,-0.701 ± 0.2,-0.985 ± 0.19
GAUAAGCAAUAUUACGCACC,-1.96 ± 0.16,-0.327 ± 0.2
GUAAAGCAAUAUUACGCAGG,-1.96 ± 0.12,-0.168 ± 0.14
CUUCAGCAAUAUUACGGAUU,-2.13 ± 0.18,-1.75 ± 0.16
GAAUAGCAAUAUUACGUCAU,-1.07 ± 0.1,-0.865 ± 0.13
UUUCAGCAAUAUUACGCGGC,-2.67 ± 0.25,-1.74 ± 0.27
UACUAGCAAUAUUACGGGAG,-2.3 ± 0.11,-1.19 ± 0.1
AAUCAGCAAUAUUACGUUAA,-0.816 ± 0.072,-0.587 ± 0.077
ACAGAGCAAUAUUACGGUGG,-4.17 ± 0.23,-3.01 ± 0.32

Sequence,self-splicing fitness (ln) (30 °C),self-splicing fitness (ln) (37 °C)
AGAAAGCAAUAUUACGUGGU,-4.26 ± 0.29,-2.41 ± 0.16
CAGGAGCAAUAUUACGGAAU,-2.62 ± 0.29,-2.58 ± 0.39
AGAGAGCAAUAUUACGAACC,-2.98 ± 0.39,-1.57 ± 0.38
CAUAAGCAAUAUUACGGAUU,-3.15 ± 0.19,-2.25 ± 0.23
CUCGAGCAAUAUUACGCGAU,-3.25 ± 0.17,-2.96 ± 0.23
CAGGAGCAAUAUUACGCUAU,-3.39 ± 0.4,-2.39 ± 0.24
AAUGAGCAAUAUUACGCUAG,,-1.93 ± 0.36
GACUAGCAAUAUUACGCGUU,,-3.83 ± 0.39
AGAGAGCAAUAUUACGUGCG,-1.98 ± 0.16,-1.79 ± 0.26
GCAUAGCAAUAUUACGGGGC,-3.43 ± 0.23,-2.72 ± 0.32
GCUCAGCAAUAUUACGGGCG,-1.61 ± 0.071,-1.22 ± 0.085
GUCUAGCAAUAUUACGACAG,-2.33 ± 0.18,-1.71 ± 0.3
CCAUAGCAAUAUUACGUUUG,-1.68 ± 0.1,-0.897 ± 0.1
CAGGAGCAAUAUUACGUUCG,-0.032 ± 0.12,0.338 ± 0.15
AGCUAGCAAUAUUACGUGAG,-2.57 ± 0.12,-2.28 ± 0.16
CCAAAGCAAUAUUACGGUUU,-3.21 ± 0.12,-2.34 ± 0.15
GAAGAGCAAUAUUACGAGUU,-2.61 ± 0.16,-2.03 ± 0.21
UACCAGCAAUAUUACGCCCG,-0.0448 ± 0.11,-0.0962 ± 0.14
AUUGAGCAAUAUUACGAUCC,-1.32 ± 0.4,
AUAUAGCAAUAUUACGUUCC,-1.69 ± 0.29,
CGCCAGCAAUAUUACGAUAA,-3.9 ± 0.46,-2.78 ± 0.35
AGGGAGCAAUAUUACGUAGG,,-2.14 ± 0.47
UCCAAGCAAUAUUACGCCGA,-0.365 ± 0.14,0.242 ± 0.13
GCUGAGCAAUAUUACGAGUU,-2.73 ± 0.13,-0.949 ± 0.12
GACGAGCAAUAUUACGGUCG,-2.31 ± 0.097,-0.868 ± 0.12

Sequence,self-splicing fitness (ln) (30 °C),self-splicing fitness (ln) (37 °C)
CGGAAGCAAUAUUACGAUCC,-3.21 ± 0.37,-1.42 ± 0.23
UAUGAGCAAUAUUACGGGGU,-2.98 ± 0.21,-2.2 ± 0.22
GUGGAGCAAUAUUACGCUUA,-1.86 ± 0.14,-1.04 ± 0.22
CCCGAGCAAUAUUACGGGUA,-3.44 ± 0.2,-3.43 ± 0.23
GCAUAGCAAUAUUACGUCAG,-2.47 ± 0.16,-1.8 ± 0.23
CAACAGCAAUAUUACGUCUG,-1.89 ± 0.062,-1.38 ± 0.063
AUCGAGCAAUAUUACGCAGG,-3.53 ± 0.28,-2.77 ± 0.22
CGGAAGCAAUAUUACGCCCU,-0.363 ± 0.13,0.204 ± 0.15
AUCAAGCAAUAUUACGCACG,-2.1 ± 0.15,-2.28 ± 0.18
GAACAGCAAUAUUACGCCGU,-1.98 ± 0.13,-1.61 ± 0.13
CAUUAGCAAUAUUACGACUG,-0.158 ± 0.079,0.262 ± 0.092
CAACAGCAAUAUUACGCAGG,-2.19 ± 0.11,-0.807 ± 0.085
ACAGAGCAAUAUUACGACGG,-2.78 ± 0.24,-1.65 ± 0.27
AAGAAGCAAUAUUACGGAGG,-3.92 ± 0.29,-2.96 ± 0.32
ACCUAGCAAUAUUACGAGUA,-2.47 ± 0.14,-1.16 ± 0.12
CUCCAGCAAUAUUACGCGUC,-3.46 ± 0.28,
CACAAGCAAUAUUACGUAAC,-2.43 ± 0.095,-0.662 ± 0.14
AUACAGCAAUAUUACGCUGU,-4.13 ± 0.36,-3.51 ± 0.33
AGUUAGCAAUAUUACGCAGC,-2.29 ± 0.16,-1.18 ± 0.16
GCGUAGCAAUAUUACGAAAU,-2.16 ± 0.29,-0.358 ± 0.24
CAGUAGCAAUAUUACGUAUG,-2.06 ± 0.11,-1.93 ± 0.16
AAGAAGCAAUAUUACGGUAA,-2.01 ± 0.19,-0.929 ± 0.16
AACAAGCAAUAUUACGACUC,-0.216 ± 0.072,0.125 ± 0.097
UAAAAGCAAUAUUACGAACU,-0.332 ± 0.23,-0.647 ± 0.2
AUCUAGCAAUAUUACGUGUA,-2.44 ± 0.12,-1.31 ± 0.11

Sequence,self-splicing fitness (ln) (30 °C),self-splicing fitness (ln) (37 °C)
CGCUAGCAAUAUUACGACAU,-3.31 ± 0.022,-2.06 ± 0.036
GGAUAGCAAUAUUACGUUGA,-3.16 ± 0.24,-1.25 ± 0.18
GGGCAGCAAUAUUACGCCAC,-3.34 ± 0.37,-1.22 ± 0.38
AAGUAGCAAUAUUACGUAUA,-1.96 ± 0.13,-2.15 ± 0.14
UAGUAGCAAUAUUACGCGCG,-0.283 ± 0.077,-0.281 ± 0.1
GCAUAGCAAUAUUACGUACC,-0.706 ± 0.19,-0.405 ± 0.26
CGGGAGCAAUAUUACGGAGU,-3.92 ± 0.27,-2.77 ± 0.2
GCGAAGCAAUAUUACGCAAG,-2.51 ± 0.42,
AAGUAGCAAUAUUACGCCCG,-1.26 ± 0.23,-0.559 ± 0.22
CCUAAGCAAUAUUACGGUAA,-2.48 ± 0.24,-2.73 ± 0.25
CGAUAGCAAUAUUACGCUGG,-0.585 ± 0.19,-1.43 ± 0.23
AUUAAGCAAUAUUACGUACU,0.0206 ± 0.094,0.125 ± 0.12
AUGCAGCAAUAUUACGGAGC,-2.6 ± 0.15,-2.99 ± 0.18
CCAGAGCAAUAUUACGAAGG,-3.47 ± 0.19,-1.92 ± 0.22
UGAGAGCAAUAUUACGCACC,-1.54 ± 0.26,-1.15 ± 0.45
CCUUAGCAAUAUUACGUUCG,-3.37 ± 0.29,-0.857 ± 0.18
UUCAAGCAAUAUUACGUGGA,-2.17 ± 0.17,-2.52 ± 0.15
UUAUAGCAAUAUUACGGACG,-1.25 ± 0.38,-0.128 ± 0.34
UAGAAGCAAUAUUACGACAU,-1.569 ± 0.014,-0.76 ± 0.033
CAGUAGCAAUAUUACGUAUC,-3.18 ± 0.33,-2.2 ± 0.25
UACAAGCAAUAUUACGUCAU,-3.94 ± 0.16,-1.05 ± 0.096
CGUUAGCAAUAUUACGUCAG,-0.851 ± 0.13,0.0149 ± 0.14
